Assay results as given in PMC4717663 (Nature structural & molecular biology, 2014).
Blank lines part the entries; values can stand above or below the binder they belong to. No end group written: not given here. *: point of attachment. FITC = O=C1OC2(c3ccc(O)cc3Oc3cc(O)ccc32)c2ccc(NC(=S)*)cc21; Ahx = NCCCCCC(=O)O

B1: soluble αVβ6 headpiece (complex)
chain 1: FNLDVDSPAEYSGPEGSYFGFAVDFFVPSASSRMFLLVGAPKANTTQPGIVEGGQVLKCDWSSTRRCQPIEFDATGNRDYAKDDPLEFKSHQWFGASVRSKQDKILACAPLYHWRTEMKQEREPVGTCFLQDGTKTVEYAPCRSQDIDADGQGFCQGGFSIDFTKADRVLLGGPGSFYWQGQLISDQVAEIVSKYDPNVYSIKYNNQLATRTAQAIFDDSYLGYSVAVGDFNGDGIDDFVSGVPRAARTLGMVYIYDGKNMSSLYNFTGEQMAAYFGFSVAATDINGDDYADVFIGAPLFMDRGSDGKLQEVGQVSVSLQRASGDFQTTKLNGFEVFARFGSAIAPLGDLDQDGFNDIAIAAPYGGEDKKGIVYIFNGRSTGLNAVPSQILEGQWAARSCPPSFGYSMKGATDIDKNGYPDLIVGAFGVDRAILYRARPVITVNAGLEVYPSILNQDNKTCSLPGTALKVSCFNVRFCLKADGKGVLPRKLNFQVELLLDKLKQKGAIRRALFLYSRSPSHSKNMTISRGGLMQCEELIAYLRDESEFRDKLTPITIFMEYRLDYRTAADTTGLQPILNQFTPANISRQAHILLDTGGLEVLFQ
chain 2: HVQGGCALGGAETCEDCLLIGPQCAWCAQENFTHPSGVGERCDTPANLLAKGCQLNFIENPVSQVEILKNKPLSVGRQKNSSDIVQIAPQSLILKLRPGGAQTLQVHVRQTEDYPVDLYYLMDLSASMDDDLNTIKELGSRLSKEMSKLTSNFRLGFGSFVEKPVSPFVKTTPEEIANPCSSIPYFCLPTFGFKHILPLTNDAERFNEIVKNQKISANIDTPEGGFDAIMQAAVCKEKIGWRNDSLHLLVFVSDADSHFGMDSKLAGIVCPNDGLCHLDSKNEYSMSTVLEYPTIGQLIDKLVQNNVLLIFAVTQEQVHLYENYAKLIPGATVGLLQKDSGNILQLIISAYEELRSEVELEVLGDTEGLNLSFTAICNNGTLFQHQKKCSHMKVGDTASFSVTVNIPHCERRSRHIIIKPVGLGDALELLVSPECNCDCQKEVEVNSSKCHHGNGSFQCGVCACHPGHMGPRCESRGLQTLFQ

Assays:
Test in all cases: fluorescence polarisation
soluble αVβ3 headpiece = soluble αVβ3 headpiece (human, UniProt P06756 31-624; P05106 27-498, M400C | Q267C)
Sequence of soluble αVβ3 headpiece (P05106 27-498 Q293C, one chain of several): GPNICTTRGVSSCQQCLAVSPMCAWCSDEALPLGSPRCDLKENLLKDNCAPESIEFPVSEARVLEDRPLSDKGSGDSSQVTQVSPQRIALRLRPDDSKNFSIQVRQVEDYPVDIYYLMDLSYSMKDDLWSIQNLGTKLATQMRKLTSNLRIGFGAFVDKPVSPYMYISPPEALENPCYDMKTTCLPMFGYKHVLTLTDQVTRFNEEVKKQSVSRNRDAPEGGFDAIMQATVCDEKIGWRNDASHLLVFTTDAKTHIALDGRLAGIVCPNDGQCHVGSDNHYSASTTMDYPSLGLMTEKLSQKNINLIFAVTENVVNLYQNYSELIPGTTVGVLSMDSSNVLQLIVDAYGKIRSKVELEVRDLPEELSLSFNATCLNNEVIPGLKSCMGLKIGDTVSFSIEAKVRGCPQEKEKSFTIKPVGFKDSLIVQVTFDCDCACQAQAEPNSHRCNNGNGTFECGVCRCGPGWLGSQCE

soluble αVβ6 headpiece = molecular target: B1
[1] = molecular target: nonapeptide containing RGD from pro-TGF-β3

- binding result (soluble αVβ3 headpiece): binds
Binder: {FITC-Ahx}-GRGDLGRL [FITC–pro-TGF-β3 peptide (FITC-aminohexanoic-GRGDLGRL)]

- Kd (soluble αVβ6 headpiece): 8.5 µM
Binder: YTSGDQKTI [homologous peptide from pro-TGF-β2 (SGD in place of RGD)]

Binder: B1
- Kd [1]: 0.0085 µM
